This is an account of results in IntAct's records for PubMed 35512704.

The labels stand for the following.
B1: Speckle-type POZ protein (Homo sapiens), O43791 (parent)
chain: MSRVPSPPPPAEMSSGPVAESWCYTQIKVVKFSYMWTINNFSFCREEMGEVIKSSTFSSGANDKLKWCLRVNPKGLDEESKDYLSLYLLLVSCPKSEVRAKFKFSILNAKGEETKAMESQRAYRFVQGKDWGFKKFIRRDFLLDEANGLLPDDKLTLFCEVSVVQDSVNISGQNTMNMVKVPECRLADELGGLWENSRFTDCCLCVAGQEFQAHKAILAARSPVFSAMFEHEMEESKKNRVEINDVEPEVFKEMMCFIYTGKAPNLDKMADDLLAAADKYALERLKVMCEDALCSNLSVENAAEILILADLHSADQLKTQAVDFINYHASDVLETSGWKSMVVSHPHLVAEAYRSLASAQCPFLGPPRKRLKQS
partner: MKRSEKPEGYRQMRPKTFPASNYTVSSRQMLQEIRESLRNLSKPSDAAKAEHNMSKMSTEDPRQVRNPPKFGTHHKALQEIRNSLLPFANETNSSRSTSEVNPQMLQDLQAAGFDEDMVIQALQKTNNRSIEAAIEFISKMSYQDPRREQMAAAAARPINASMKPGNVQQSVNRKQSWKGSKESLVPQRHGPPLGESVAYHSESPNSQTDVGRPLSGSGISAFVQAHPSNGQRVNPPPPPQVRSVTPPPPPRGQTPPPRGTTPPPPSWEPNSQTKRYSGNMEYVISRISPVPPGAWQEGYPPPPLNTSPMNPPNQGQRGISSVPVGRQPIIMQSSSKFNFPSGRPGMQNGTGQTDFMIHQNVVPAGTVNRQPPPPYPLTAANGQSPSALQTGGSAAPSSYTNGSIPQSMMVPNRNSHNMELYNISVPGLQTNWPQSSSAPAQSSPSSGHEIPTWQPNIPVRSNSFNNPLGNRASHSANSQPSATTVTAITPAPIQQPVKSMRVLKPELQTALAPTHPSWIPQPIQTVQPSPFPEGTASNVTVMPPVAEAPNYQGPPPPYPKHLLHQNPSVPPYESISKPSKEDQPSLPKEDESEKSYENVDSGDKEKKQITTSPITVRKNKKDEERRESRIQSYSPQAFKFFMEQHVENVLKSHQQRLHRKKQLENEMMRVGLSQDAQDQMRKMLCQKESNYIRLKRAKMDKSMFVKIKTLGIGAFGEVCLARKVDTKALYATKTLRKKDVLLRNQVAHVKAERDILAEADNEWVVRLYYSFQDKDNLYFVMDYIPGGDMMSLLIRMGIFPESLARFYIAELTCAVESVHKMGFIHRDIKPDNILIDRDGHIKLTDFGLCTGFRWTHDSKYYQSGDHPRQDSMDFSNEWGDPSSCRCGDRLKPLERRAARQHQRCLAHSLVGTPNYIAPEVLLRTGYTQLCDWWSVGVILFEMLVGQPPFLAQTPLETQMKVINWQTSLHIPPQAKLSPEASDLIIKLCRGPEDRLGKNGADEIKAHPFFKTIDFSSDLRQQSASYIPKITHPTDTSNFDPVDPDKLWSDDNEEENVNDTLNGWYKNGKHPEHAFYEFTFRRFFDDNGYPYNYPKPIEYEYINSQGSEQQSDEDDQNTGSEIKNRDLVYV
B2: Speckle-type POZ protein (Homo sapiens), O43791 (parent)
chain: B1 chain
partner: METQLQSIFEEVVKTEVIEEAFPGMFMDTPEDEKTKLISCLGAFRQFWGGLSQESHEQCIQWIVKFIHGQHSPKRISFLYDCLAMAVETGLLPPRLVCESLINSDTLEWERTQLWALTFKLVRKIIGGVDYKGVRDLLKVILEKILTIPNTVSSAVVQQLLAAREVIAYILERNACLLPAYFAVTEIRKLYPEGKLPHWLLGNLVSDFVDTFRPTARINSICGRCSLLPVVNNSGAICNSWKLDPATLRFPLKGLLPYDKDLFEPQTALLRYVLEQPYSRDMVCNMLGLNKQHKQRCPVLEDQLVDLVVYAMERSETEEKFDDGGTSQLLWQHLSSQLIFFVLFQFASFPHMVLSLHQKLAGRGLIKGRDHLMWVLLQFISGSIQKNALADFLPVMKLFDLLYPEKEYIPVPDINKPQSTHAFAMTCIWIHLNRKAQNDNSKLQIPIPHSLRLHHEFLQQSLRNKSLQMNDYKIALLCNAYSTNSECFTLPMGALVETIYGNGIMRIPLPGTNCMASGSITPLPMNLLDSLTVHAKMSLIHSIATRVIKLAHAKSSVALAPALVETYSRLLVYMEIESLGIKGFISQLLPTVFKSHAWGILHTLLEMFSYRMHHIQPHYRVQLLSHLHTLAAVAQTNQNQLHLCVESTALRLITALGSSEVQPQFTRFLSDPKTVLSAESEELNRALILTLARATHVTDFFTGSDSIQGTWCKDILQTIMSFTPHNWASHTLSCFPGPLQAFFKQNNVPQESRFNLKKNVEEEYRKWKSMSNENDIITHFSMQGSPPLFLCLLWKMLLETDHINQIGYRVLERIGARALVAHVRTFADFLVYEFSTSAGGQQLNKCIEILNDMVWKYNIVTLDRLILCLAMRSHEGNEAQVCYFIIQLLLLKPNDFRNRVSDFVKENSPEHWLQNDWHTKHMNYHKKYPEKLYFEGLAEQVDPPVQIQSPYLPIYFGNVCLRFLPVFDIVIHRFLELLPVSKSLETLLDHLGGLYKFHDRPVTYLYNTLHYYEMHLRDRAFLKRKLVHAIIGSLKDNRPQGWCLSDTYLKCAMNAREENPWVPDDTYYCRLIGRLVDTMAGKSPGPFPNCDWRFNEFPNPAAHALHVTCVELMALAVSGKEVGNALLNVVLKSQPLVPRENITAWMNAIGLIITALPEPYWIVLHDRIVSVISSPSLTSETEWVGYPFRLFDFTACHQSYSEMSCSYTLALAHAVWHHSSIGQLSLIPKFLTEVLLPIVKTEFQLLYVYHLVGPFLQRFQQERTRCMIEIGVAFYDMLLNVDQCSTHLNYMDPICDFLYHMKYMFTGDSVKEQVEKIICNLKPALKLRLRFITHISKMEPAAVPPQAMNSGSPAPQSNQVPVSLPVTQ
B3: Speckle-type POZ protein (Homo sapiens), O43791 (parent)
chain: B1 chain
partner: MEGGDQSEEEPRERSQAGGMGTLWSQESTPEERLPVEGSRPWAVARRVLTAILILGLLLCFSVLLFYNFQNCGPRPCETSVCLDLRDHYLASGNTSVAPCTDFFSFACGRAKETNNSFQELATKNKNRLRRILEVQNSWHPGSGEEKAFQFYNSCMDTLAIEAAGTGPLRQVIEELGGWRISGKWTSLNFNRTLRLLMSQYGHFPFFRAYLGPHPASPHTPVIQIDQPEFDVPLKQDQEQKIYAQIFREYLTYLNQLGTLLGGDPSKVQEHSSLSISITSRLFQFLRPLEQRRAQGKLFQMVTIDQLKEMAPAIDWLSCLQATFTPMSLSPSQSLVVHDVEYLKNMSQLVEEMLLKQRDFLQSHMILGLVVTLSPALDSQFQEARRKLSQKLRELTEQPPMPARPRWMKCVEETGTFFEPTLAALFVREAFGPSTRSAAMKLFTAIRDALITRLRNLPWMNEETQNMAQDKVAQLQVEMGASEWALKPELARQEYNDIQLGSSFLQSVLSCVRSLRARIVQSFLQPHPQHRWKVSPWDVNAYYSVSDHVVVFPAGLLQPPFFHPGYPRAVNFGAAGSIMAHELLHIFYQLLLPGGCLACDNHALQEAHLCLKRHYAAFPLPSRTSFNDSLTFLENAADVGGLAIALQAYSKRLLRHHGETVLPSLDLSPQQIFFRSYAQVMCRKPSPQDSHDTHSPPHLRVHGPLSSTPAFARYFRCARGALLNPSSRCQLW
B4: Speckle-type POZ protein (Homo sapiens), O43791 (parent)
chain: B1 chain
partner: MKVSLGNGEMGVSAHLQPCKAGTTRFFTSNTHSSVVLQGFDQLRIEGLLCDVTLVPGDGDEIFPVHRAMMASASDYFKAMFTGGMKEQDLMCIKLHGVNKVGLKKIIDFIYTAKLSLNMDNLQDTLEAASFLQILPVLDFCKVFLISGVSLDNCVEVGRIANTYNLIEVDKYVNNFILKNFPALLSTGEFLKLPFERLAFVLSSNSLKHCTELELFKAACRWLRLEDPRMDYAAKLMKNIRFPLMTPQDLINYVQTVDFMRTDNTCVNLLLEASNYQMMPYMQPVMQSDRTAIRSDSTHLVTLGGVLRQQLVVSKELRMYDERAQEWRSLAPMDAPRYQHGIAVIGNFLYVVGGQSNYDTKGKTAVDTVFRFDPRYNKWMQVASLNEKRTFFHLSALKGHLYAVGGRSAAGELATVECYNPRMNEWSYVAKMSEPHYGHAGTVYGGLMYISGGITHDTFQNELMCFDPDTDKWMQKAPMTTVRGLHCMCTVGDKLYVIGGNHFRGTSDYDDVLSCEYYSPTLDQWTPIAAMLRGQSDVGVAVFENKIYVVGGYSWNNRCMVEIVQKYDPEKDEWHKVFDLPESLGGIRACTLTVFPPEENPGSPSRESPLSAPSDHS
B5: Speckle-type POZ protein (Homo sapiens), O43791 (parent)
chain: B1 chain
partner: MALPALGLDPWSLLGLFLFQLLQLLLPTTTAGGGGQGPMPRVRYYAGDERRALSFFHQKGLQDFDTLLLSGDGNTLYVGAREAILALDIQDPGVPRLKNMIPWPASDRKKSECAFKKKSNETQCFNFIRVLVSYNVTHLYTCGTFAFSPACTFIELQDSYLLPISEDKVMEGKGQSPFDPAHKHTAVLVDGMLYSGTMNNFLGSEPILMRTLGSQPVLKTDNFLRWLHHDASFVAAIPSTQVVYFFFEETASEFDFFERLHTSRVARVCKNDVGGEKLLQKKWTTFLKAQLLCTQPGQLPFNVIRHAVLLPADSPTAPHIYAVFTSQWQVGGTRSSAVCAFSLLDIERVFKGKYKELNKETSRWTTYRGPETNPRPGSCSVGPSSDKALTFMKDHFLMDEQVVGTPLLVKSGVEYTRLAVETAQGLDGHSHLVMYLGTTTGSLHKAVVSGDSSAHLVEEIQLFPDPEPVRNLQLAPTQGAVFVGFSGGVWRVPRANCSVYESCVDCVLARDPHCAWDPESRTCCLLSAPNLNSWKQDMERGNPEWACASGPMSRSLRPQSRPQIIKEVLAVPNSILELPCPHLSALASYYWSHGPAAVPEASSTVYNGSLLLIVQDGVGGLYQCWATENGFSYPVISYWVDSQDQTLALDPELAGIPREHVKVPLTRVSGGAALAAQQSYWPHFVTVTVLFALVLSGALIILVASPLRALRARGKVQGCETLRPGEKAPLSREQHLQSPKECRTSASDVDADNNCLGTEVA
B6: Speckle-type POZ protein (Homo sapiens), O43791 (parent)
chain: B1 chain
partner: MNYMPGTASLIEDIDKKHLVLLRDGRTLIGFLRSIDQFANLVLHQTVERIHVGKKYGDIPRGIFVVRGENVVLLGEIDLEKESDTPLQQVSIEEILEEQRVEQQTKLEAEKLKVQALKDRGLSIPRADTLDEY

Variants of B1 are the subject of the first test. Conditions: with lats1_human LATS1, O95835.
For the variant Y87C, the “effect of a mutation on the interaction” value was “with no effect”.

The variants in the next test derive from B1. Conditions: with lats1_human LATS1, O95835. This is another data set of the same source.
On to F133L, for which the “effect of a mutation on the interaction” value is given as “with no effect”.

In another test the parent is B1. Conditions: with lats1_human LATS1, O95835. The source holds these as a separate data set.
As for F133V, the “effect of a mutation on the interaction” value is recorded as “with no effect”.

Another test covers variants of B2. Conditions: with med23_human MED23, Q9ULK4.
As for F133V, the “effect of a mutation on the interaction” value is on record as “with no effect”.

The variants in another test derive from B2. Conditions: with med23_human MED23, Q9ULK4. This is another data set of the same source.
With F133L, the “effect of a mutation on the interaction” value is “with no effect”.

A further test covers variants of B3. Conditions: with kell_human KEL.
As for F133V, the “effect of a mutation on the interaction” value is “with no effect”.

The variants in a further test derive from B3. Conditions: with kell_human KEL. This is another data set of the same source.
As for F133L, the “effect of a mutation on the interaction” value was “with no effect”.

In a further test the parent is B3. Conditions: with kell_human KEL. This is another data set of the same source.
Y87C: the “effect of a mutation on the interaction” value was “with no effect”.

A further test covers variants of B4. Conditions: with klhl9_human KLHL9, Q9P2J3.
With F133L, the “effect of a mutation on the interaction” value is reported as “with no effect”.

The next test covers variants of B4. Conditions: with klhl9_human KLHL9, Q9P2J3. The source holds these as a separate data set.
Consider Y87C, for which the “effect of a mutation on the interaction” value is given as “with no effect”.

In the next test the parent is B5. Conditions: with sem4a_human SEMA4A.
With F133V, the “effect of a mutation on the interaction” value was “with no effect”.

The variants in the next test derive from B5. Conditions: with sem4a_human SEMA4A. This is another data set of the same source.
For the variant F133L, the “effect of a mutation on the interaction” value was “with no effect”.

The variants in a further test derive from B5. Conditions: with sem4a_human SEMA4A. The source holds these as a separate data set.
In the case of Y87C, the “effect of a mutation on the interaction” value is “with no effect”.

The next test covers variants of B6. Conditions: with lsm1_human LSM1, O15116.
For the variant F133L, the “effect of a mutation on the interaction” value was “with no effect”.

The variants in a further test derive from B6. Conditions: with lsm1_human LSM1, O15116. The source holds these as a separate data set.
For F133V, the “effect of a mutation on the interaction” value is reported as “with no effect”.
